Measurements taken from publication doi:10.1101/659805.
Substitutions are numbered along the chain they refer to.

T1: FLAG-Npas4 (Mus musculus (mouse), UniProt Q8BGD7 1-802)
T1 sequence: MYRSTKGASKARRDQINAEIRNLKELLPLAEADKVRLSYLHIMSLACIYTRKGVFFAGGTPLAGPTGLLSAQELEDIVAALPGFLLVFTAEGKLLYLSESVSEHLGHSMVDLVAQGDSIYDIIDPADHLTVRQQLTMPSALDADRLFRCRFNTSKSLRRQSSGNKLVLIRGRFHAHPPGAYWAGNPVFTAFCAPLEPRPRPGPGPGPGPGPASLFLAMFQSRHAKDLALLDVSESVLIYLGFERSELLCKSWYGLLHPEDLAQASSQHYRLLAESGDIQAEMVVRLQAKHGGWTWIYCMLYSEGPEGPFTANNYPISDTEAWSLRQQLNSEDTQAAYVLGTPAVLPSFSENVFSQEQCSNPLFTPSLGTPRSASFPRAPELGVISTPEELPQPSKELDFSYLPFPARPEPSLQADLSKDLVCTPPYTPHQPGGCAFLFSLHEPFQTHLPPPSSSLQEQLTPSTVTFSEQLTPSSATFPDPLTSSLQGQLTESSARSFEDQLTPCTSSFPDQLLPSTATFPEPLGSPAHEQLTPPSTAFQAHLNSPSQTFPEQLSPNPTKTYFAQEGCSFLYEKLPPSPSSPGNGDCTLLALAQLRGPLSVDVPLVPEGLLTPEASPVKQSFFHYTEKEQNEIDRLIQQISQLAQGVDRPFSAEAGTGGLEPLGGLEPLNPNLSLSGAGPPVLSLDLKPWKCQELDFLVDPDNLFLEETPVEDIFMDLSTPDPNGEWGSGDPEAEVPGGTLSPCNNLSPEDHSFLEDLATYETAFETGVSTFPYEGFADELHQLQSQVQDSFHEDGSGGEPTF

B1: Iqsec3 promoter WT probe (dsDNA)
DNA 1: CGGGAAGCAGGGTTCCTCACGAAGCCCAGAGGTGGGAGGTGG
DNA 2: CCACCTCCCACCTCTGGGCTTCGTGAGGAACCCTGCTTCCCG
B2: Iqsec3 promoter MT probe (dsDNA)
DNA 1: B1 DNA 1 with C18A, C20A, G21A
DNA 2: B1 DNA 2 with C22T, G23T, G25T

Target: T1, FLAG-Npas4
Test: EMSA

Row | Binder | binding result
1 | B1 | binds
2 | B2 | no binding
